Data published in patent publication US20130039933A1 (UNIVERSITY OF MIAMI, published 2013).

B1: control vector (AD) (other, yeast, UniProt P04386 768-881, looked up)
chain: ANFNQSGNIADSSLSFTFTNSSNGPNLITTQTNSQALSQPIASSNVHDNFMNNEITASKIDDGNNSKPLSPGWTDQTAYNAFGITTGMFNTTTMDDVYNYLFDDEDTPPNPKKE
notes: Yeast two-hybrid negative control
B2: Full length DAD1 (defender against apoptotic cell death) fused to the GAL4 activation domain (other, human, UniProt P61803 1-113, looked up, not shown: large carriers)
chain: MSASVVSVISRFLEEYLSSTPQRLKLLDAYLLYILLTGALQFGYCLLVGTFPFNSFLSGFISCVGSFILAVCLRIQINPQNKADFQGISPERAFADFLFASTILHLVVMNFVG
notes: Yeast two-hybrid prey; also called DAD I

Key:
[1] = biological target: T1, BD-hSTING-C (carboxyl region of STING, amino acids 173-379, fused to the binding domain of yeast GAL4) (yeast; human, UniProt P04386 1-147); assay: yeast two-hybrid, high stringency plates (-Trp, -Leu, -Ade, -His)
T1 construct: Yeast two-hybrid bait; also called pGBK-T7-hSTING-C; pGBKT7-STING C-terminal

[2] = biological target: T1, BD-hSTING-C (carboxyl region of STING, …); assay: yeast two-hybrid screen

Binder | binding result [1] | binding result [2]
B1 | no binding | –
B2 | – | binds
